According to patent US20230279089A1 (GlaxoSmithKline, published 2023):
Several values for one entry are separate records, joined by “and”; a condition that tells them apart may be missing. Identical values can stand only once.

T1: Human BMP1 CD+CUB1 truncated antigen (human, UniProt P13497 121-434, limits assumed)
T1 construct: domain: CD+CUB1
T1 sequence (looked up): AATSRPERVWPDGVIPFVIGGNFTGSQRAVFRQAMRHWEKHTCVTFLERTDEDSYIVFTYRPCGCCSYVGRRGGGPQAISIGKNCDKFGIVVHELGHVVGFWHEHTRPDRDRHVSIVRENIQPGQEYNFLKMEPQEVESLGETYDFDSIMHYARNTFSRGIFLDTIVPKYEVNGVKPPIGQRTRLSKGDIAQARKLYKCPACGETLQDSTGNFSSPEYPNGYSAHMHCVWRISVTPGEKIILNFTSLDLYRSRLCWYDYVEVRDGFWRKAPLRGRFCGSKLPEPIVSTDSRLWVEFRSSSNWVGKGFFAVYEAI

T2: Human TLL2 CD+CUB1 truncated antigen (human, UniProt Q9Y6L7 150-463, limits assumed)
T2 construct: domain: CD+CUB1
T2 sequence (looked up): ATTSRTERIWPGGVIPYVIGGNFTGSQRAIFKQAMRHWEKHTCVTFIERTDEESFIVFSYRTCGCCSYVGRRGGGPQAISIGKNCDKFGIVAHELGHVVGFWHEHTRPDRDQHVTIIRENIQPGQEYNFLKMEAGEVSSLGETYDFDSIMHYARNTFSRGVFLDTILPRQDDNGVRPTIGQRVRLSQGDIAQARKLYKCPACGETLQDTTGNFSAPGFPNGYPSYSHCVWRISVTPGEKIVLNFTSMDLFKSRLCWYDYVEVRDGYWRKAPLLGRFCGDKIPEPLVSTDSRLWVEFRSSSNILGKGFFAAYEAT

T3: Mouse BMP1 CD+CUB1 truncated antigen (mouse, UniProt P98063 126-439, limits assumed)
T3 construct: domain: CD+CUB1
T3 sequence (looked up): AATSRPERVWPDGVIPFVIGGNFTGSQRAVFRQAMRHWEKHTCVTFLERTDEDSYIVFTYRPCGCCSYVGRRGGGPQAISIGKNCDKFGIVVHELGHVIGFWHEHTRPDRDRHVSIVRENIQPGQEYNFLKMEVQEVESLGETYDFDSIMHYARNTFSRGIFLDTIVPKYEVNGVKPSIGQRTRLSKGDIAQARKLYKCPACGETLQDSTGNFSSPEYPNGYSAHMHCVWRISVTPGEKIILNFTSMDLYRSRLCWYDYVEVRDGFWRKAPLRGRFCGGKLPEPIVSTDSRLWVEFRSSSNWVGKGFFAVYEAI

T4: Human BMP1-1 (human, UniProt P13497-2 121-730, limits assumed)
T4 sequence (looked up): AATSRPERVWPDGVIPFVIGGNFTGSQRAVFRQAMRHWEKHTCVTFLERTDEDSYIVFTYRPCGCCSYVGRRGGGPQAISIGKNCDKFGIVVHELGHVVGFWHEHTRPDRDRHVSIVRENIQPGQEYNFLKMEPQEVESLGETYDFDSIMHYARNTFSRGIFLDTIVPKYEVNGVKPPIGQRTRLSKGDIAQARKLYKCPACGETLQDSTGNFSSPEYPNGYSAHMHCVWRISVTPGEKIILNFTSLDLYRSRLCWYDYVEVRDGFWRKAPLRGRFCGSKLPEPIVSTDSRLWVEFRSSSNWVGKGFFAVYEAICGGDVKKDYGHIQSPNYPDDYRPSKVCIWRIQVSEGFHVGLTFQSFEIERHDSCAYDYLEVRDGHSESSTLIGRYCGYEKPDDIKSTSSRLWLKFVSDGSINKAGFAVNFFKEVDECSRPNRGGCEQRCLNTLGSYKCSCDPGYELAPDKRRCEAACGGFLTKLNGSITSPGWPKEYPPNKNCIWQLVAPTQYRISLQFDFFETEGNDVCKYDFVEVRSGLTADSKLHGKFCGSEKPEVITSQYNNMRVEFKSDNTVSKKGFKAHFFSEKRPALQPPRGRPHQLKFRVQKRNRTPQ

T5: Mouse BMP1-3: 126-707 (mouse, UniProt P98063 126-707)
T5 sequence (looked up): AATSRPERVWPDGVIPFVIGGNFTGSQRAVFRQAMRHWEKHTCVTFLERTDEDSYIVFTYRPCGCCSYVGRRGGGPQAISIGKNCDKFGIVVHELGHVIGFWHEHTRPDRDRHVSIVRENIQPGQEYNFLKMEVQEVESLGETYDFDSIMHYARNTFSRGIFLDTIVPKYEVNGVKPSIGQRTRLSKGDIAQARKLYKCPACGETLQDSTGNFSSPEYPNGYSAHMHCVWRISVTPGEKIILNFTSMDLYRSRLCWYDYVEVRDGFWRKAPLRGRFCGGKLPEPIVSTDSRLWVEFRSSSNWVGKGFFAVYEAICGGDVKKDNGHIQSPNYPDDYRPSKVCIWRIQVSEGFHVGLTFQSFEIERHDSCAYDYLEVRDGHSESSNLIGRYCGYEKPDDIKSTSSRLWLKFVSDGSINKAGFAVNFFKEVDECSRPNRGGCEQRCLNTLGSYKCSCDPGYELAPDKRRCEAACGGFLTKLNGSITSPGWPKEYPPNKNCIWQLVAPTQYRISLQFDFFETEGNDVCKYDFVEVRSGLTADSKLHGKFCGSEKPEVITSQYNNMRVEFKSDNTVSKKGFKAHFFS


What was measured:
[1] = biological target: T1, Human BMP1 CD+CUB1 truncated antigen; assay: SPR, captured mAb, HBS-EP
[2] = biological target: T2, Human TLL2 CD+CUB1 truncated antigen; assay: SPR, captured mAb, HBS-EP
Method: (§1) Both antibodies 13Y039-4B06-4334 and 13Y039-3E07-2944 and the reverse chimeric antibodies were evaluated for binding to human TLL2 CD+CUB1 and mouse BMP1 CD+CUB1 truncated antigens by SPR on a BIACORE T200. Protein A/G was immobilised to a CM5 sensor chip via amine coupling and the antibodies were captured to the protein A/G surface. The antigens were passed over the captured antibody at various concentrations. The measured affinities to human TLL2 CD+CUB1 are shown in Table 2 and the measured affinities to mouse BMP1 CD+CUB1 are shown in Table 3.

[3] = biological target: T3, Mouse BMP1 CD+CUB1 truncated antigen; assay: SPR, captured mAb, HBS-EP
Method: as §1

[4] = biological target: T1, Human BMP1 CD+CUB1 truncated antigen; assay: SPR, captured mAb, enzyme dilution buffer
[5] = biological target: T4, Human BMP1-1; assay: cell-based or functional assay
[6] = biological target: T5, Mouse BMP1-3: 126-707; assay: cell-based or functional assay

Kd [1] [nM]	binding result [2]	Kd [3]	Kd [4] [nM]	pKi, app, FRET enzyme activity, Human BMP1 [5]	pKi, app, FRET enzyme activity, Mouse BMP1 [6]	Binder
5.31	no binding	2.66 nM and 6.2 nM	0.07			13Y039-3E07-2944 human variable region on mouse IgG2a LAGA Fc, mouse cKappa (Compound B) (antibody, Reverse chimera; also called 13Y039-3E07-2944, mIgG2a LAGA) heavy: QVQLQQWGAGLLKPSETLSLTCAVYGGSFFGDYWSWIRQPPGKGLEWIGEIDWSGATNYNPSLKSRVTISVDTSKNQFSLKLSSVTAADTAVYYCARGGSKELSFDIWGQGTMVTVSSAKTTAPSVYPLAPVCGDTTGSSVTLGCLVKGYFPEPVTLTWNSGSLSSGVHTFPAVLQSDLYTLSSSVTVTSSTWPSQSITCNVAHPASSTKVDKKIEPRGPTIKPCPPCKCPAPNLAGAPSVFIFPPKIKDVLMISLSPIVTCVVVDVSEDDPDVQISWFVNNVEVHTAQTQTHREDYNSTLRVVSALPIQHQDWMSGKEFKCKVNNKDLPAPIERTISKPKGSVRAPQVYVLPPPEEEMTKKQVTLTCMVTDFMPEDIYVEWTNNGKTELNYKNTEPVLDSDGSYFMYSKLRVEKKNWVERNSYSCSVVHEGLHNHHTTKSFSRTPGK light: DIQMTQSPSSLSASVGDRVTITCQASQDIANYLNWYQQKPGKAPKLLIYDASNLETGVPSRFSGSGSGTDFTFTISSLQPEDIATYYCQQADTLPFTFGGGTKVEIKRADAAPTVSIFPPSSEQLTSGGASVVCFLNNFYPKDINVKWKIDGSERQNGVLNSWTDQDSKDSTYSMSSTLTLTKDEYERHNSYTCEATHKTSTSPIVKSFNRNEC
				11.8	11.3	13Y039-4B06-4334 human variable region on rat IgG2b LAGA Fc and rat Kappa (Compound C) (antibody) heavy: QVQLVQSGAEVKKPGASVKVSCKASGYTFLGYYMSWVRQAPGQGLEWMGWINPLSGETNYAQKFQGRVTMTRDTSISTAYMELSRLRSDDTAVYYCARDTGELDGMNWYFDLWGRGTLVTVSSAQTTAPSVYPLAPGCGDTTSSTVTLGCLVKGYFPEPVTVTWNSGALSSDVHTFPAVLQSGLYTLTSSVTSSTWPSQTVTCNVAHPASSTKVDKKVERRNGGIGHKCPTCPTCHKCPVPELAGAPSVFIFPPKPKDILLISQNAKVTCVVVDVSEEEPDVQFSWFVNNVEVHTAQTQPREEQYNSTFRVVSALPIQHQDWMSGKEFKCKVNNKALPSPIEKTISKPKGLVRKPQVYVMGPPTEQLTEQTVSLTCLTSGFLPNDIGVEWTSNGHIEKNYKNTEPVMDSDGSFFMYSKLNVERSRWDSRAPFVCSVVHEGLHNHHVEKSISRPPGK light: EIVLTQSPATLSLSPGERATLSCRASQSVSSYLAWYQQKPGQAPRLLIYDASNRATGIPARFSGSGSGTDFTLTISSLEPEDFAVYYCQQSDSWPPTFGGGTKVEIKRADAAPTVSIFPPSTEQLATGGASVVCLMNNFYPRDISVKWKIDGTERRDGVLDSVTDQDSKDSTYSMSSTLSLTKADYESHNLYTCEVVHKTSSSPVVKSFNRNEC
